{
  "source": "patent US20230295310A1",
  "about": "(ABCELLERA BIOLOGICS, published 2023)",
  "binders": {"B1": {"name": "mAb 178 (antibody, V domains shown)", "VH": "EVQLVESGGGLVQPGRSLRLSCAASGFTFDDYTMHWVRQAPGKGLEWVSDISWNSGTIGYADSVKGRFTISRDNAKNSLYLQMNSLRAEDTALYYCVKDSSGYGHYYKYYMDVWGKGTTVTVSS", "VL": "DIQMTQSPSSLSASVGDRVTITCRASQSISNYLNWYQQKAGKVPKVLIYGSSSLQSGVPSRFSGSGSGTDFTLTISSLQPEDFASYYCQQTYSSPLTFGGGTKVDFK", "notes": "VH/VL only"}, "B2": {"name": "mAb 179 (antibody, V domains shown)", "VH": "EVQLVESGGGLVQPGRSLRLSCAASGFTFDDYTMHWVRQTPGKGLEWVSDISWNSGSIGYADSVKGRFTISRDNAKNTLYLQMNSLRAEDTALYYCVKDSSGYGHYLYYYMDVWGKGTTVTVSS", "VL": "DIQMTQSPSSLSASVGDRVTITCRASQSIRNYLNWYQQSPGRAPKLLIFSASSLQSGVPSRFSGSGSGTDFTLTISSLQPEDFVTYYCQQRYSTPITFGQGTRLEIK", "notes": "VH/VL only"}, "B3": {"name": "mAb 143 (antibody, V domains shown)", "VH": "QVQLMQSGSELEKPGASVKVSCKASGYTFTSFAINWVRQAPGQGLEWMGWINTITGNPSYAQGFTGRFVFSLDTSVTTAFLQINSLKTEDTAVYYCARYVTSSGKFDYWGQGTLVTVSS", "VL": "DIQMTQSPSSVSASVGDRVTITCRASRGISRWLDWYQQKPGKAPKLLIYAASNLQGGVPSRFSGSGSGTDFTLTIRSLQPEDFAIYYCQQAKTFPFTFGPGTKVDIK"}, "B4": {"name": "mAb 177 (antibody, V domains shown)", "VH": "EVQLVESGGGLVQPGMSLRLSCAASGFTFDDYTMHWVRQSPGKGLEWVAGISWNSGTIGYGDSMKGRFTISRDNAKNSLDLQMNSLRVEDTALYYCAKDTSGYGHYYYYFMDVWGKGTTVTVSS", "VL": "DIQMTQSPSSLSASIGDRVSITCRTSQIINNYLNWYQQKPGKAPKLLIYSASSLQSGVPSRFSGSGSGTDFTLTLSSLQPEDFATYFCQQSYNFPITFGQGTRLELK", "notes": "VH/VL only; the printed VL holds a letter U"}},
  "key": {"[1]": {"molecular_target": "T1, human CD3 expressed on cells (Jurkat cells; human primary T cells) (human, UniProt P07766 23-207; P04234 22-171; P09693 23-182)", "T1 construct": "whole, on cells", "T1 sequence (P07766 23-207, chain 1 of 3)": "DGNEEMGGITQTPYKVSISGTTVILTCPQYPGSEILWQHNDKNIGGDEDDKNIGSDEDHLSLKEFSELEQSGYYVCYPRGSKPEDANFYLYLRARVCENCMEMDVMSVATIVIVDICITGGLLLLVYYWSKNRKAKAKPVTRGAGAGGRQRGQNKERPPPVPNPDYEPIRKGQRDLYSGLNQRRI", "T1 sequence (P04234 22-171, chain 2 of 3)": "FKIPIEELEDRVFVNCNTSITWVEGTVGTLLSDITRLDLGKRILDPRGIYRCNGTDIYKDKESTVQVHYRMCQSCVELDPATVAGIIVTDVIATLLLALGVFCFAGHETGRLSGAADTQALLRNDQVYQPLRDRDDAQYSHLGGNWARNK", "T1 sequence (P09693 23-182, chain 3 of 3)": "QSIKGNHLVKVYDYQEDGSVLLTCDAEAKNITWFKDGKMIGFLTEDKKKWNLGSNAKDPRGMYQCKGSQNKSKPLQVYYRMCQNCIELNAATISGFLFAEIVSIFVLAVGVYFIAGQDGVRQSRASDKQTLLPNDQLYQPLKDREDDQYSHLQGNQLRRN", "assay": "flow cytometry, 25 nM, Jurkat cells", "procedure,_shortened": "(§1)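 25 nM Ab in FACS buffer (PBS+2% FBS), 30 min at 4° C on CD3+ cells; flow cytometry MFI normalized to isotype = FOI; cutoff ≥10 for positive.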"}, "[2]": {"molecular_target": "T2, cynomolgus monkey CD3 expressed on cyno primary T cells (cynomolgus monkey, UniProt Q95LI5 22-198; Q95LI8 22-171; Q95LI7 23-181)", "T2 construct": "whole, on cells; CD3 complex on purified cynomolgus monkey CD3 pan T cells; also called cyno CD3", "T2 sequence (Q95LI5 22-198, chain 1 of 3)": "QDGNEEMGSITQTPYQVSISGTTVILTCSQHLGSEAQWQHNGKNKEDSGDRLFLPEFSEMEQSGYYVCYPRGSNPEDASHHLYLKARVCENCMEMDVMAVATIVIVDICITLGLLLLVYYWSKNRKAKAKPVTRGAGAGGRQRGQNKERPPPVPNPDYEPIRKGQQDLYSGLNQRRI", "T2 sequence (Q95LI8 22-171, chain 2 of 3)": "as the sequence (P04234 22-171, chain 2 of 3) above, with I5V, N15K, I20V, S32T, D33N, I34N, T64A, S74N, V83L, H141R counted along it", "T2 sequence (Q95LI7 23-181, chain 3 of 3)": "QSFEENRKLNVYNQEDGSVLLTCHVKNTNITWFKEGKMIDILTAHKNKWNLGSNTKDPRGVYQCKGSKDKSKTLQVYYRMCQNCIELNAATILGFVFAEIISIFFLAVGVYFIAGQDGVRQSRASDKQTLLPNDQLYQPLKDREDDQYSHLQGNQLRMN", "assay": "flow cytometry, 25 nM, cyno primary T cells", "procedure,_shortened": "as §1"}, "[3]": {"molecular_target": "T1, human CD3 expressed on cells (Jurkat …)", "assay": "flow cytometry, 25 nM, human primary T cells", "procedure,_shortened": "as §1"}, "[4]": {"molecular_target": "T3, human CD3 expressed on cells (human, UniProt P07766 23-207; P04234 22-171; P09693 23-182)", "T3 construct": "whole, on cells; CD3 complex on Jurkat cells and on human primary T cells", "T3 sequence (P07766 23-207, chain 1 of 3)": "as the sequence (P07766 23-207, chain 1 of 3) above", "T3 sequence (P04234 22-171, chain 2 of 3)": "as the sequence (P04234 22-171, chain 2 of 3) above", "T3 sequence (P09693 23-182, chain 3 of 3)": "as the sequence (P09693 23-182, chain 3 of 3) above", "assay": "flow cytometry, 25 nM", "procedure,_shortened": "as §1"}, "[5]": {"molecular_target": "T4, cynomolgus monkey CD3 expressed on primary T cells (cynomolgus monkey, UniProt Q95LI5 22-198; Q95LI8 22-171; Q95LI7 23-181)", "T4 construct": "whole, on cells; CD3 complex on purified cynomolgus monkey T cells; also called cyno CD3", "T4 sequence (Q95LI5 22-198, chain 1 of 3)": "as the sequence (Q95LI5 22-198, chain 1 of 3) above", "T4 sequence (Q95LI8 22-171, chain 2 of 3)": "as the sequence (P04234 22-171, chain 2 of 3) above, with I5V, N15K, I20V, S32T, D33N, I34N, T64A, S74N, V83L, H141R counted along it", "T4 sequence (Q95LI7 23-181, chain 3 of 3)": "as the sequence (Q95LI7 23-181, chain 3 of 3) above", "assay": "flow cytometry, 25 nM, cyno primary T cells", "procedure,_shortened": "as §1"}, "[6]": {"molecular_target": "T3, human CD3 expressed on cells", "assay": "flow cytometry, human primary T cells (Jurkat cells in c2 gave 15.495, CD3 KO Jurkat cells in c3 gave 38.63)", "protocol": "Purified antibodies were confirmed to bind CD3 expressed on cells using the CytoFLEX S or LX flow cytometers (Beckman Coulter). Antibodies were diluted to 25 nM in FACS buffer (PBS+2% FBS) and were incubated with CD3-expressing cells for 30 minutes at 4° C. […] The median fluorescence intensity of the binding signal for each antibody was normalized to the isotype control to obtain a fold over isotype value. An antibody with a fold over isotype (FOI) of ≥10 was considered to be positive for binding."}},
  "data": [
    {"binder": "B1", "values": [
      {"measurement": "Binding (FOI)", "setting": "[1]", "value": 128, "unit": "FOI"},
      {"measurement": "Binding (FOI)", "setting": "[2]", "value": 158, "unit": "FOI"},
      {"measurement": "Binding (FOI)", "setting": "[3]", "value": 172, "unit": "FOI"}
    ]},
    {"binder": "B2", "values": [
      {"measurement": "Binding (FOI)", "setting": "[1]", "value": 129, "unit": "FOI"},
      {"measurement": "Binding (FOI)", "setting": "[2]", "value": 54.2, "unit": "FOI"},
      {"measurement": "Binding (FOI)", "setting": "[3]", "value": 177, "unit": "FOI"}
    ]},
    {"binder": "B3", "values": [
      {"measurement": "Jurkat Cell Binding (FOI)", "setting": "[4]", "value": 15.5, "unit": "FOI"},
      {"measurement": "binding result", "setting": "[5]", "value": "no binding (tested: FOI >=10 = positive)"},
      {"measurement": "binding result", "setting": "[6]", "value": "no binding (tested: FOI >=10 = positive; 25 nM)"}
    ]},
    {"binder": "B4", "values": [
      {"measurement": "Binding (FOI)", "setting": "[1]", "value": 121, "unit": "FOI"},
      {"measurement": "Binding (FOI)", "setting": "[2]", "value": 45.1, "unit": "FOI"},
      {"measurement": "Binding (FOI)", "setting": "[3]", "value": 146, "unit": "FOI"}
    ]}
  ]
}
